No end group written: not given here.
Target: α9α10 subtype of the nicotinic acetylcholine receptor (nAChR) (rat) (UniProt P43144)
Assay: cell-based or functional assay

α9α10 subtype of the nicotinic acetylcholine receptor (nAChR) (rat), sequence (P43144 26-479, chain 1 of 2): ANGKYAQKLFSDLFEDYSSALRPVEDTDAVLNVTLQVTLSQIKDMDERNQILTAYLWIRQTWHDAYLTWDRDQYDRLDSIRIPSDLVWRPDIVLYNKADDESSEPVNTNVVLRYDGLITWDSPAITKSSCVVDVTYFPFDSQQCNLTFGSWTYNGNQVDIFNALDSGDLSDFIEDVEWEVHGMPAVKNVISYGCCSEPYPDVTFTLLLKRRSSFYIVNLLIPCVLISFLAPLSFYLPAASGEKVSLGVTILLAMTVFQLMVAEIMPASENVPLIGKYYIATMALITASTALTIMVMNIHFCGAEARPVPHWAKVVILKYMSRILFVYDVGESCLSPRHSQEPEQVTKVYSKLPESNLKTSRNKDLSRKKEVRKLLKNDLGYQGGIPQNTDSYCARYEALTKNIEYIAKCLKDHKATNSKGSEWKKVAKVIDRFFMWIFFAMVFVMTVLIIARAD
α9α10 subtype of the nicotinic acetylcholine receptor (nAChR) (rat), sequence (Q9JLB5 25-447, chain 2 of 2, further chain): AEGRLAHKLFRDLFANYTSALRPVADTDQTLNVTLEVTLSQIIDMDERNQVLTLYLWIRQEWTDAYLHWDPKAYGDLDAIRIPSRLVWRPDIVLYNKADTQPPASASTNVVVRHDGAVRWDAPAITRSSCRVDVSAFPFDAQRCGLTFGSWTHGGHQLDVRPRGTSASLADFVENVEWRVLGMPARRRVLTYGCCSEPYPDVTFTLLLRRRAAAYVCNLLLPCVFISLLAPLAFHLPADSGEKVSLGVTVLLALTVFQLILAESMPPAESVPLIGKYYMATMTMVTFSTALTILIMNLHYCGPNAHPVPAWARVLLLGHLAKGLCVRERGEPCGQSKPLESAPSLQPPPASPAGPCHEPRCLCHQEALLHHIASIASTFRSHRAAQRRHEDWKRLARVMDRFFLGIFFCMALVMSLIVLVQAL

GCCSDPRCRYRC (not fully specified (C-terminus); ends and bridges not checked) [RgIA-Cys-amide]
IC50 (activity on α9α10 nAChR, oocytes as in Example 1): 7.8 nM

— patent publication US20090203616A1
